Experimental findings from patent EP4692127A1 (Kangma-Healthcode (Shanghai) Biotech Co., Ltd, dated 2026) are described below.

By EC50 is commonly meant the concentration that produces a half-maximal response.

The test addresses recombinant human PD-1 protein (human, UniProt Q15116 25-167). Description: indirect ELISA, recombinant human PD-1 coated, HRP anti-human IgG (Fab specific), 4-parameter fit. (In general: In an ELISA, binding on a coated surface is turned into a signal by an enzyme label.)

Chain of recombinant human PD-1 protein (Q15116 25-167 limits assumed): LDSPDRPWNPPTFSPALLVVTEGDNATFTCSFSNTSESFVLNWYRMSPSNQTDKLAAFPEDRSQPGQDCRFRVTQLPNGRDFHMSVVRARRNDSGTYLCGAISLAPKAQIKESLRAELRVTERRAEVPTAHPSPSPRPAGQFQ

B1: Commercially available Tislelizumab (antibody, human IgG4 S228P, kappa)
heavy: QVQLQESGPGLVKPSETLSLTCTVSGFSLTSYGVHWIRQPPGKGLEWIGVIYADGSTNYNPSLKSRVTISKDTSKNQVSLKLSSVTAADTAVYYCARAYGNYWYIDVWGQGTTVTVSSASTKGPSVFPLAPCSRSTSESTAALGCLVKDYFPEPVTVSWNSGALTSGVHTFPAVLQSSGLYSLSSVVTVPSSSLGTKTYTCNVDHKPSNTKVDKRVESKYGPPCPPCPAPPVAGGPSVFLFPPKPKDTLMISRTPEVTCVVVAVSQEDPEVQFNWYVDGVEVHNAKTKPREEQFNSTYRVVSVLTVVHQDWLNGKEYKCKVSNKGLPSSIEKTISKAKGQPREPQVYTLPPSQEEMTKNQVSLTCLVKGFYPSDIAVEWESNGQPENNYKTTPPVLDSDGSFFLYSKLTVDKSRWQEGNVFSCSVMHEALHNHYTQKSLSLSLGK
light: DIVMTQSPDSLAVSLGERATINCKSSESVSNDVAWYQQKPGQPPKLLINYAFHRFTGVPDRFSGSGYGTDFTLTISSLQAEDVAVYYCHQAYSSPYTFGQGTKLEIKRTVAAPSVFIFPPSDEQLKSGTASVVCLLNNFYPREAKVQWKVDNALQSGNSQESVTEQDSKDSTYSLSSTLTLSKADYEKHKVYACEVTHQGLSSPVTKSFNRGEC
B1: the 50% effective concentration (EC50) amounted to 0.0143 µg/mL.
